Experimental data: patent publication US20040116336A1 (TAKADA PHARMACEUTICAL, published 2004)
Where two headings read alike, the source gives them in different places. Starred links: 1 amine or outer side, 2 acyl side, 3 side chain; linkers in the order of their positions; H or OH if unused. Non-standard residues stand in square brackets, D forms with d. No end group written: not given here. Pyn = 1-pyrenylalanine, O=C([C@H](Cc1ccc2ccc3cccc4ccc1c2c34)N[*:1])[*:2]; Phe(4-Cl) = N[C@@H](Cc1ccc(Cl)cc1)C(=O)O; Lys(Me2) = CN(C)CCCC[C@H](N)C(=O)O; Cha = N[C@@H](CC1CCCCC1)C(=O)O

How the values were obtained:
[1] = biological target: T1, APJ (orphan G protein-coupled receptor protein); experiment: cell-based or functional assay
T1 chain: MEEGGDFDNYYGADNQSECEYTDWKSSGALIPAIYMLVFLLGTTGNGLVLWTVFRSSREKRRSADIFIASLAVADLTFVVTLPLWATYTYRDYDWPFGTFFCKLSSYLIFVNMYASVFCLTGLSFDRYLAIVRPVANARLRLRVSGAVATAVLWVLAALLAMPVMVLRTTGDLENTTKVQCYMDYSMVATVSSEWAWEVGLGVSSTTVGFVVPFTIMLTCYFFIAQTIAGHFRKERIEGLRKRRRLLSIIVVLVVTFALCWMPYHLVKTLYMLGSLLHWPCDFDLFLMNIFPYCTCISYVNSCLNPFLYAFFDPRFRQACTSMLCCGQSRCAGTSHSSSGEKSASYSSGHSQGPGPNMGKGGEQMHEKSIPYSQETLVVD

[2] = biological target: T1, APJ (orphan G protein-coupled receptor …); experiment: radioligand competition, 125I-labelled compound of Ref. Ex. 1 (100 pM), CHO-A10 membrane fraction
Procedure: This product was mixed with an equal volume of an assay buffer (50 mM Tris-HCl/pH 7.5, 5 mM EDTA, 0.5 mM PMSF, 20 μg/ml leupeptin, 0.1 μg/ml pepstatin A, 4 μg/ml E-64 (Peptide Research Laboratory, Co.), 0.1% bovine serum albumin) and stored at −30° C. before use.
CHO-A10 cells were cultured, recovered with PBS containing 5 mM EDTA from a culture vessel, and suspended in the above-mentioned assay buffer not containing bovine serum albumin. The cells were homogenized 3 times at 12,000 rpm for 15 seconds by a Polytron homogenizer (manufactured by Kinematica Inc.) and then centrifuged (1000×g, 4° C., 10 minutes), and the supernatant was recovered. The precipitates were subjected again to the same procedure as above, and the respective supernatants were combined and centrifuged at 100,000×g, 4° C. for 1 hour, to recover precipitates (membrane fraction). The membrane fraction was suspended again in a small amount of the buffer, homogenized with a Teflon homogenizer and stored at −80° C. before use.
Binding assay was carried out under the following conditions. […] containing 0.25 μg of the membrane fraction, the ¹²⁵I-labeled compound at a final concentration of 100 pM, a test sample and an assay buffer were put onto each well of a 96-well polypropylene plate, and incubated at room temperature for 1.5 hours. Measurement of non-specific binding was carried out using a well containing 1 μM unlabeled compound in place of the test sample. After the incubation was finished, a cell harvester (Packard) adapted to 96 wells and a filter unit (GF/C, Packard) were used for separation thereby capturing the membrane fraction on the filter. After the filter was sufficiently dried, Microcinti 0 (Packard) was added thereto, and using Top Count (Packard), the amount of the labeled material captured together with the membrane fraction on the filter was measured.

[3] = biological target: T1, APJ (orphan G protein-coupled receptor …); experiment: radioligand competition, compound of Ref. Ex. 2 as labelled ligand, CHO-A10 membrane fraction
[4] = biological target: T1, APJ (orphan G protein-coupled receptor …); experiment: as above
[5] = biological target: T1, APJ (orphan G protein-coupled receptor …); experiment: cell-based or functional assay
[6] = biological target: T1, APJ (orphan G protein-coupled receptor …); experiment: radioligand competition, 125I-labelled compound of Ref. Ex. 1 (100 pM), CHO-A10 membrane fraction
[7] = biological target: T1, APJ (orphan G protein-coupled receptor …); experiment: cell-based or functional assay
[8] = biological target: T1, APJ (orphan G protein-coupled receptor …); experiment: radioligand competition, compound of Ref. Ex. 2 as labelled ligand, CHO-A10 membrane fraction

B1: Arg-Arg-Gln-Arg-Pro-Arg-Leu-Ser-Ala-Arg-Gly-Pro-Met (peptide)
peptide: RRQRPRLSARGPM
notes: also called Compound in Ex. 18
EC50, inhibition of forskolin-stimulated cAMP production (CHO-A10 clone 6 cells) [1]: 180 pM
IC50 [2]: 2500 pM
IC50 [3]: 23 pM

B2: Arg-Arg-Gln-Arg-Pro-Arg-Leu-Ser-Ala-Arg-Gly-Pro (peptide)
peptide: RRQRPRLSARGP
EC50, inhibition of forskolin-stimulated cAMP production (CHO-A10 clone 6 cells) [1]: 260 pM

B3: Arg-Arg-Arg-Arg-Pro-Arg-Leu-Ser-His-Lys-Gly-Pro-Met-Pro-Phe (peptide)
peptide: RRRRPRLSHKGPMPF
EC50, inhibition of forskolin-stimulated cAMP production (CHO-A10 clone 6 cells) [1]: 320 pM

B4: Arg-Arg-Lys-Arg-Pro-Arg-Leu-Ser-His-Lys-Gly-Pro-Met-Pro-Phe (peptide)
peptide: RRKRPRLSHKGPMPF
notes: also called Compound in Ex. 23
EC50, inhibition of forskolin-stimulated cAMP production (CHO-A10 clone 6 cells) [1]: 310 pM
IC50 [2]: 9200 pM
IC50 [3]: 90 pM

B5: Arg-Pro-Arg-Leu-Ser-Ala-Arg-Gly-Pro-Met-Pro-Phe (peptide)
peptide: RPRLSARGPMPF
notes: also called Compound in Ex. 24
EC50, inhibition of forskolin-stimulated cAMP production (CHO-A10 clone 6 cells) [1]: 250 pM
IC50 [2]: 27000 pM
IC50 [3]: 57 pM

B6: Arg-Arg-Ala-Arg-Pro-Arg-Leu-Ser-His-Lys-Gly-Pro-Met-Pro-Phe (peptide)
peptide: RRARPRLSHKGPMPF
notes: also called Compound in Ex. 25
EC50, inhibition of forskolin-stimulated cAMP production (CHO-A10 clone 6 cells) [1]: 250 pM
IC50 [2]: 34000 pM
IC50 [3]: 67 pM

B7: Arg-Pro-Arg-Leu-Phe-Ala-Arg-Gly-Pro-Met-Pro-Phe (peptide)
peptide: RPRLFARGPMPF
notes: also called Compound in Ex. 31
EC50, inhibition of forskolin-stimulated cAMP production (CHO-A10 clone 6 cells) [1]: 140 pM
IC50 [3]: 270 pM

B8: Arg-Arg-Phe-Arg-Pro-Arg-Leu-Ser-His-Lys-Gly-Pro-Met-Pro-Phe (peptide)
peptide: RRFRPRLSHKGPMPF
notes: also called Compound in Ex. 33
EC50, inhibition of forskolin-stimulated cAMP production (CHO-A10 clone 6 cells) [1]: 1100 pM
IC50 [3]: 370 pM

B9: Arg-Pro-Arg-Leu-Phe-Ala-Arg-Gly-Pro-Met-Phe (peptide)
peptide: RPRLFARGPMF
notes: also called Compound in Ex. 47
EC50, inhibition of forskolin-stimulated cAMP production (CHO-A10 clone 6 cells) [1]: 360 pM
IC50 [3]: 1800 pM

B10: Arg-Pro-Arg-Leu-Ser-Ala-Arg-Gly-Pro-Cha-Pyn (peptide)
peptide: RPRLSARGP[Cha][Pyn]
modifications: not fully specified; printed as Arg-Pro-Arg-Leu-Ser-Ala-Arg-Gly-Pro-Cha-Pyn
notes: also called Compound in Ex. 60
IC50 [4]: 800 pM
EC50, inhibition of forskolin-stimulated cAMP production (CHO-A10 clone 6 cells) [5]: 1100 pM
IC50 [6]: 1100 pM

B11: Arg-Pro-Arg-Leu-Ser-Ala-Arg-Gly-Pro-Cha-Pro-Pyn (peptide)
peptide: RPRLSARGP[Cha]P[Pyn]
modifications: not fully specified; printed as Arg-Pro-Arg-Leu-Ser-Ala-Arg-Gly-Pro-Cha-Pro-Pyn
notes: also called Compound in Ex. 61
IC50 [4]: 560 pM
EC50, inhibition of forskolin-stimulated cAMP production (CHO-A10 clone 6 cells) [5]: 2200 pM
IC50 [6]: 2200 pM

B12: Arg-Arg-Gln-Arg-Pro-Arg-Leu-Ser-Ala-Arg-Gly-Gly-Cha (peptide)
peptide: RRQRPRLSARGG[Cha]
modifications: not fully specified; printed as Arg-Arg-Gln-Arg-Pro-Arg-Leu-Ser-Ala-Arg-Gly-Gly-Cha
notes: also called Compound in Ex. 62
IC50 [4]: 140 pM
EC50, inhibition of forskolin-stimulated cAMP production (CHO-A10 clone 6 cells) [5]: 230 pM
IC50 [6]: 230 pM

B13: Arg-Pro-Lys(Me)2-Leu-Ser-Ala-Arg-Gly-Pro-Met-Pro-Phe (peptide)
peptide: RP[Lys(Me2)]LSARGPMPF
notes: also called Compound in Ex. 63
IC50 [4]: 74 pM
EC50, inhibition of forskolin-stimulated cAMP production (CHO-A10 clone 6 cells) [5]: 330 pM
IC50 [6]: 330 pM

B14: Arg-Pro-Arg-Leu-Ser-Ala-Lys(Me)2-Gly-Pro-Met-Pro-Phe (peptide)
peptide: RPRLSA[Lys(Me2)]GPMPF
notes: also called Compound in Ex. 64
EC50, inhibition of forskolin-stimulated cAMP production (CHO-A10 clone 6 cells) [5]: 380 pM
IC50 [6]: 380 pM

B15: Arg-Pro-Arg-Leu-Ser-His-Lys-Gly-Pro-Met-Pro-Phe(Cl) (peptide)
peptide: RPRLSHKGPMP[Phe(4-Cl)]
notes: also called Compound in Ex. 8
EC50, inhibition of forskolin-stimulated cAMP production (CHO-A10 clone 6 cells) [7]: 340 pM
IC50 [2]: 13000 pM
IC50 [8]: 39 pM

B16: Arg-Arg-Gln-Arg-Pro-Arg-Leu-Ser-Ala-Arg-Gly-Pro-Met-Pro-Phe (peptide)
peptide: RRQRPRLSARGPMPF
notes: also called Compound in Ex. 17
IC50 [3]: 36 pM

B17: Arg-Pro-Arg-Leu-Ser-Ala-Arg-Gly-Pro-Met (peptide)
peptide: RPRLSARGPM
notes: also called Compound in Ex. 27
IC50 [3]: 110 pM
